Source: article PMC11904497

Legend:
[1] = biological target: Y34F S2SbHbN (Shewanella benthica strain KT99); assay: HP-SAXS (batch SAXS in the high-pressure cell); undiluted sample 10 mg/ml in the high-pressure cell, ambient pressure (0.101 MPa) point of the pressure series; volume-fraction analysis, radius of gyration and molecular mass
[2] = biological target: S2SbHbN, Shewanella benthica strain KT99 TrHbN-2 (UniProt ID: A9DF82) with Cys51Ser and Cys71Ser replacements (Shewanella benthica strain KT99); assay: as above

| Substance | stoichiometry N [1] | stoichiometry N [2] |
| --- | --- | --- |
| Y34F S2SbHbN (natural protein) | 4 |  |
| S2SbHbN, Shewanella benthica strain KT99 TrHbN-2 (UniProt ID: A9DF82) with Cys51Ser and Cys71Ser replacements (natural protein) |  | 4 |
